Values quoted from earlier work, collected in PMC7911819.

Target: calmodulin (Homo sapiens) (UniProt P0DP23)

## CyaA 1-370 (from UniProt P0DKX7)
  Kd: < 0.1 nM
